Test results: the nanobody polyreactivity screen of Harvey et al. (2022)

Test: yeast display, Sf9 membrane polyspecificity reagent, FACS + sequencing; frameworks hold sequencing errors
Procedure, shortened: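 Nanobodies from a synthetic yeast display library (Saccharomyces cerevisiae BJ5465), induced 36–48 hours with galactose, were stained 1 hour at 4 °C with 10% biotinylated, detergent-solubilized Sf9 membrane reagent, enriched on streptavidin microbeads, then FACS-sorted. Anti-HA (expression) and streptavidin (reagent binding) fluorescence set low and high (top ~1%) gates. Polyreactivity labels come from the gate of origin. Genes were colony-PCR amplified, MiSeq 2 × 250 sequenced and filtered by CDR length.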

Row | Sequence | polyreactivity (PSR sort gate)
1 | QAQLQESGGSLVQAGGGLRLSCAASGYISVGSVMGWYRQAPSKERELVASIDQGANTNYADSVKGRFTISRDNAKNNVYLQMNSLKPEDTAVYYCATVTTYILNYWGQGTQVTVCS | low polyreactivity
2 | QAQLQESGGSLVQAGGGLRLSCAASGYSSVGSVMGWYRQAPSKEREHVASIDQGANTNYADSVKGRFTISRDNAKNNVYLQMTSLKPEDTAVYYCATETTYILNYWGQGTQVTVSS | low polyreactivity
3 | QAQLQESGGSLVQAGGRLRLSCAASGYISVGSVMGWYRQAPSKERELVASIDQVANTNYADSVKGRFTISRDNAKNNVYLQMNSLKPEDTAVYYCATETTYILNYWGQVTQVTVSS | low polyreactivity
4 | QAQLVESGGGLVQAGGSLRLICAASGSTFGVNAMGWYTQAPGKERELVAIITSTTYADSVKGRFTISRDNAKNTVYLQMNSLKPEDTAVYYCAKVQERVTKGRFYLLEYYWGQGTQVTVSS | low polyreactivity
5 | QCQLVVSGGGLVQAGGSLRISCSASGSTFGVYSMGWYRQAPGKERELFATINSGGSTNYADSVKGRFTISRDNAKNTVYLQMNSLKPEDTAVYYCASGPFWQDFYVYEYDYWGQGTQVTVSS | low polyreactivity
6 | QDHLVESGGCLVQAGGSLRLSCSASGRIFRYYAMGWYRHAPGKERELVAAIRNGGSTYYADSVKGRFTISRDNAKNTVYLQMNSLKPEDTAVYYCAAGYNYVSHRCGDWGQGSQVTVSS | high polyreactivity
7 | QDHLVESGGGLVHAGGRLRLSCAASVRIFTAYAMGWYRQAPGTERELVPAISSGDSTYSADSVKGRFTISRDNAKNSVYLQMNSLKPVVTAVYSCATGVYPDFEYVSWGQGTQVTGSS | low polyreactivity
8 | QDHLVESGGGLVQAGCSLRLTCAASGSIFIPNAMGWYRQAPGKERYLVAAIRSGGSSYYADSVKGRFTISRDNAKNTVYLQMNSLKPEDTAVYYCAADTYTYYYYLARYYYWGQGTQVTVSS | low polyreactivity
9 | QDHLVESGGGLVQAGGSLRLSCAASGRIFFGYAMGWYRQATGKERELVATISYNDTSTYYADSVKGRFTISRDNAKNTVYLQMNCLKPEDTAVNYCSKSLGAPASDVYWGQGTQVTVSS | low polyreactivity
10 | QDLLVESAGGLVQAGGSLRLSCAASGRNFPYKAMGWYRPAPGKERELVAAISSGGSTNYADSVKGRFTTSRDNAKNTVYLQMNSLKPEDTAVYYCAVGYSYYPSDEFDYWGQGTQVTVSS | low polyreactivity
11 | QDPLVESGGGLVQAGGSLSLSCAASGRNIPVYAMGWYSQAPGKERELVATISYSGSSTYYADSVKGRFTNSRDNAKNTVYLEMYSLKPEDTAVYYWNADAFGPPGVQYYNWGQGTKVTVSS | low polyreactivity
12 | QDQHGESGGGLVQAGGSLRLSCAASGFIFWSYTMGWYRQAPGKERELVAVITGSGSTYYADSVKGRFTISRDNAKNTVYFQMNSLKPEDTALYYCATEVHVTAWTFEYEYWGQGTQVTVSS | low polyreactivity
13 | QDQHVESAGGLVQAAGSLRLSCAASGSTFWYYVMGWSRQAPGQVRELVAAISTRGDSTYYADSVKGRFTISRDNANNSVYLQMYSLKPEDTAVYYCAKSRQSSGRVRFDYWGQGTQVTVSS | low polyreactivity
14 | QDQHVESAGGLVQAGGSLRLSCAATGFTFYYNPMRWYRQAPGKERELFASITRSGGPTYYADSVKGRFTISRDIAKHTVYLQMNSLKPEDTAVYYCARRYPGGYYWGHGTQVTVSS | high polyreactivity
15 | QDQHVESGGGLDQAGGSLRLSCAASGRIFSYNTMGWYRQAPGQERELVAASSSSGGSTYYADSVKGRFTISRDNAKNTVYLQMNSLKPEDTAVYYCNAVGRFSTRREYWGQGTQVTVSS | high polyreactivity
16 | QDQHVESGGGLVHAGGSLRLSCAASGRIFKVYAMGWYRQPPGKERQLVASIRWNTGSTYYADSVKGRFTISRDNAKNTVYLQMNSLKPEDTAVYYCNSRGYYQGRYGYWGQGTQVTVSS | high polyreactivity
17 | QDQHVESGGGLVQAGCSLRLSCAASGRTFTYNAMGWYRQAPGKERELVASISSRGGSTYYADSVKGRFTISRDNAKNTVYLQMNSLKPEDTAVYYCAARWRYQLSGSRLSYGKYDYWGQGTQVTVSS | high polyreactivity
18 | QDQHVESGGGLVQAGGSLRLSCAASGHTFRLYTMGWYRQAPGKEREFVAAIRRRTGSTYYADSVKGRFTISRDNAQNTVYLQRNSMKAEVTAVYYCNAVGDARYNYRGQGTQVTVSS | high polyreactivity
19 | QDQHVESGGGLVQAGGSLRLSCAASGLIFYYNMGWNRQAPRKERELVAAISSSGGSTSYADSVKGRFTISRDNAKNTVYLQMNSLKPEDTAVYYCAADSYPAYLGFVGFDYWGQGTQVTVSS | low polyreactivity
20 | QDQHVESGGGLVQAGGSLRLSCAASGRTFGNYAMGWYRQAPGKERELVADITRRGGSTSYADSVKGRFTISRDNAKNTVYLQMNSLKPEDTAVYYCNKAADGSSHYDYWGQGTQVTVSS | low polyreactivity
21 | QDQHVESGGGLVQAGGSLRLSCAASGRTFVFYAMGWYRQAPGKERELLAVIRVIGGSTKYADSVKGRFTISRDNAKNTVYLQMNSLKPVDTAVYYCAADGVVVVAAYMYYWGQGTQVTVSS | low polyreactivity
22 | QDQHVESGGGLVQAGGSLRLSCAASGRTFYRNAMGWYRQAPGKEREFVAVISVSCGSTYYADSVKGRFTISRDNAKNTVYLQMNSLKPEDTAVYYCAKRGPVRKTAYDYCGQGTQVTVSS | low polyreactivity

Row | Sequence | polyreactivity (PSR sort gate)
23 | QDQHVESGGGLVQAGGSLRLSCAASGSTFYIYARGWYRQAPGKERELVARISGSGGSTYYADSVKGRFTISRDNAKNTVYLQMNSLKPEDTAVYYCAAEDIYKYYQYYAFPYYRYDYWGQGTQVTVSS | low polyreactivity
24 | QDQHVESGGGLVQAGGSLRLSCAASGSTYRDNAMGWSRQAPGKERELVAAISVSGASTYYADSVKGRFTISRDNAKNTVYLQMNSLKPEDTAVYDCAKSLYQALSLSFFIFGYWGQGTQVTVSS | low polyreactivity
25 | QDQHVESGGGLVQAGGSLRLSCAASGYILRCNTMGWSRKAPGKERELVAAISSRGGITNYADSVKGRFTFSRDNAKNTVYLQMNSRKPEDTAVYYCATYWQYRYDYWGQGTQVTVSS | low polyreactivity
26 | QDQHVESGGGLVQAGGSLRLSCSATGRIFTSYVMGWYRQPQGKERQLVAAITRSGGSTYYADSVKVRFTISRDTAKNTVYLQMKSLIPVDTAVYYCNALTRLQIGGEGGGYWGKGTQVTVSS | high polyreactivity
27 | QDQHVESGGGLVQAGGSLRLSSAASGFTFKGNAMGWYRQGPGKVMELVATITQSAGSTYYADSVKGRFSISRDNAKNTVYLQMNSLKPEDTGVYFCNADPITLYYYSWYNYWGQGTQVTVSS | low polyreactivity
28 | QDQIVESGGGLVQAGGSLRLSCAASGIIFWSYAMAWYRQAPGKERELVAAINTSGDSSYYADSVKGRFTISRDNAKNTVYLQMNSLKAEDTAVYYCAAKSSTRGDYWGQGTQVTVSS | low polyreactivity
29 | QDQIVESGGGYDQAGGSLRLTCAASGRIFRGNDMGSYRQAPGKERELVASISGTGGRTYYADSVKGRFTISRDNAKNTVYLQMNSLKPEDPAVYYCAVRTSLWGYYYWGHGTQVTVSS | high polyreactivity
30 | QDQIVESGVGLVQAGGTLRLSCAASGFTFRRYVMGWYRQAPGKERELVAAISQSGGSTYYADSVKGRFTISRDNAKNTVYLQMKSLKPEDTAVYYCAATGAFWYPYDYWGQGTQVTVSS | high polyreactivity
31 | QDQLEESGGGLVQAGGSLRLSCAASGFTFGNNAMGWYRQAPGKERELDAAISKRGSSTYYADSVKGRFTISRDNAKNTVYLLMNSLKPDDTAVYYCAAQTPYYLLYDTGDYLGQGTQVTVSS | high polyreactivity
32 | QDQLEESGGGLVQAGGSLRLSCAASVRTFRDNAMGWSRQATGKQRQLVAAITQSGASTFYADSVKGRFTISRDNAKNSVYLQMNSLKADDTAVYYCAALRRQGRYVYGYWGQGTQVTVSS | high polyreactivity
33 | QDQLEESGGGLVQAGGSLRLSFAASGSTFYGYARGWYRPAPGKERELVAAISVNGGSTYYADSVKGRFTISRDNAKNTVYLQMNSLKPDETAVYYCAAGSGWRFDYWGQGTQVTVSS | low polyreactivity
34 | QDQLGESGGGIVQAGGSLRLSCASSGINFLDKAMGWYRPAQGKETELVAAYADSVKGRFTISRDNAKNTVYLQMNSLSAEDTAVYYCNAGWIRYYGFSIVSYDYWGQGTQVTVSS | low polyreactivity
35 | QDQLGESGGGLVQAGGSLRLSCAASGRTFNGYAMGWYRQAPGKVREFVAAITSNGARTYYADSVKGRFTISRDNAMNSVYLQMNSLKPEDTAVFYCAKRFARRSQRYDYWGQGTQVTVSS | high polyreactivity
36 | QDQLLESGGGLVQAGGSLRLSCAASGFTFYRYAMGWYRQAPGKERELVASISKSCGSTYYADSVKGRFTISRDNAKNTVYLQMNSLKPEDTAVYYCAADVDYPYGYWGQGTQVTVSS | low polyreactivity
37 | QDQLQESGGGLEQARGSLRLSCAASGYISTFSSEMGWYRQAPGKELELVASIAPCCTTSYADSVKGRCTISRDNAKNTVYLQMNSLKPEDTSVYYCAVDYTVPASFGFRGQGTQVTVSS | high polyreactivity
38 | QDQLVDSGGGLLQAGGSLRLSCAASGFTFWQYAMGWYRQAPGKERELVAAISGSGSSTYYADSEKGRFTISRDNAKNTVYLQMISLQPEYTAVYYCATAISRYGRFYYWGQGTQVTLSS | high polyreactivity
39 | QDQLVDSGGGLVQAGGSLRLSCAASGRIFRGNAMGWYRQAPGKERELVAAISNSGGRTYYADSVKGRFTISRDNAKNTVYLQMNSLKPDDTAVSYCAAKAPVIFWDTRIVPGYSGYYYWGQGTQVTVSS | high polyreactivity
40 | QDQLVDSGGGLVQAGGSLRLSCAASGRTFSPNTMGWYRQAPGKEREFVAAITASGDSTYYADSVKGRFTISRDNEKNTVYLQMNSLKPEDTAVYYCATDSNWYWGFNYWGQGTQVTVSS | low polyreactivity
41 | QDQLVDSGGGLVQAGGSLRLSCAATGRSFRRYFMGWYIPAPGKERELVAAISYSGATTYYADSVKGRFTISRDYAKNNVYLQMNSLKKEDTAVYYFAATAPGDRYYWGQGTQVTVSS | high polyreactivity
42 | QDQLVDSGGGLVQAGGSLRLSCGASGSTFRKYAMGWYRQAPGQEREFVAAITWSTGTTYYADSVKGRFTISRDNAKNTVYLQMNSLKREDTAVYYCAADSQPPHDLYESIEHESWGLGTQVTVSS | low polyreactivity
43 | QDQLVEAGGGLVQAGGSLRLSCAASGFIFSRNAMGWYRQAPGKEGELVAAISSTGGITYYADSVKGRFSISRDNAKNTVYLQLTSLKPEDTAVYFCAAGFYGYARHTWYNYWGQGTQVTVSS | high polyreactivity
